pKd: −log10 of the molar value.
Target: human TREM2 Ig domain (aa 19-134), wild type, biotinylated on a BirA tag (human) (UniProt Q9NZC2)
Assay: BLI

Sequence of human TREM2 Ig domain (aa 19-134), wild type, biotinylated on a BirA tag (human) (Q9NZC2 19-134): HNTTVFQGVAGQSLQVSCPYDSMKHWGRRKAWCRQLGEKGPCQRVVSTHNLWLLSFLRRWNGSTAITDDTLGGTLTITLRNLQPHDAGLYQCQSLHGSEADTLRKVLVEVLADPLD

pKd: 6.16
Substance: ApoE3 1-238 (C-term deletion) (domain or fragment)

Reference: PMC8026773
